Reference: patent US20250011438A1 (INSTITUTE FOR BASIC SCIENCE, published 2025)

Key:
[1] = target: T1, human Tie2 (hTie2), as immobilised in the Octet assay of Example 1.4 (human, UniProt Q02763 349-738, limits assumed); assay: BLI (Octet), hTie2 immobilised on AR2G sensor, antibody as analyte, 1:1 global fit
T1 construct: The protein used was probably a soluble recombinant form, possibly hTie2-Ig3-FNIII(1-3)
Method: (§1) The affinity of mouse monoclonal antibody against hTie2 was measured using Octet® system (ForteBio) where Black 96-well plates (96 well F-type black plates, Greiner) were used. […] After the hydration, hTie2 was diluted in 10 mM sodium acetate, pH 6.0 buffer at a concentration of 10 μg/ml, fixed on AR2G biosensor, and blocked with 1M ethanolamine. The mouse monoclonal anti-Tie2 antibodies were diluted to 50, 25, 12.5, 6.25, 3.125, and 0 nM with 1× kinetic buffer, and subjected to association for 300 seconds and dissociation for 900 seconds.

[2] = target: T2, recombinant human Tie2 Ig3-FNIII(1-3) domains (human, UniProt Q02763 349-738); assay: BLI (Octet), antibody immobilised on AR2G sensor, recombinant hTie2 as analyte, 1:1 global fit
T2 construct: also called hTie2-Ig3-FNIII(1-3)
T2 sequence (Q02763 349-738 limits assumed): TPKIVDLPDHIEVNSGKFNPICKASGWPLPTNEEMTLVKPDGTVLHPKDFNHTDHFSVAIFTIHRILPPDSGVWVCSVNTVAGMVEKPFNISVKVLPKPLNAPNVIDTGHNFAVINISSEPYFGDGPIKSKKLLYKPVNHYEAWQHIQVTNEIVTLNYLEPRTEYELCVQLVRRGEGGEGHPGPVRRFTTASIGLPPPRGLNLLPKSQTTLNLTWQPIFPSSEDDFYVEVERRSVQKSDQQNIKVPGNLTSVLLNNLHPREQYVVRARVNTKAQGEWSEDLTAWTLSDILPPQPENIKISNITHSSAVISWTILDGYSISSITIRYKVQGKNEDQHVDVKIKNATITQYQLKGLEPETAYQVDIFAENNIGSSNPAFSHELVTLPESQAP
Method: as §1, with “of humanized anti-Tie2” for “of mouse monoclonal”, “hydration, humanized anti-Tie2 antibody” for “hydration, hTie2”, “The recombinant hTie2 was” for “The mouse monoclonal anti-Tie2 antibodies were”, “300 sec” for “300 seconds”, “900 sec.” for “900 seconds.”

[3] = target: T2, recombinant human Tie2 Ig3-FNIII(1-3) …; assay: stated in the HDX-MS sample preparation; how it was measured is not given; HDX-MS sample preparation; hTie2-Ig3-FNIII(1-3) fragment in deuterium labeling buffer; assay not given

T1 sequence (Q02763 349-738 limits assumed): as above

B1: mouse anti-Tie2 antibody 11C4 (antibody, V domains shown)
VH: QVQLQQPGADLVRPGASVTLSCKASGYSFTSYWMNWVKQRPGQGLEWIGMIHPSDSETRLNQKFKDKATLTVDKSSSTAYMQLRSPTSEDSAVYYCAGLTIYFDYWGQGTTLTVSS
VL: DIQMTQSPSSLSASLGERVSLTCRASQDIGISLNWLQQEPDGTIKRLIYATSSLDSGVPKRFSGSRSGSDYSLTISSLESEDFVDYYCLQYASSPYTFGGGTKLEIK
Question: For B1, which Kd [1] is on record?
Answer: 0.215 nM

Question: What about the koff [1] of the same binder?
Answer: 0.000327 s⁻¹

Question: What about the kon [1] of the same binder?
Answer: 1.52e+06 M⁻¹ s⁻¹

B2: mouse anti-Tie2 antibody 4A4 (antibody, V domains shown)
VH: QVQLQQPGAELVRPGASVKLSCKASGYSFTSYWMNWVKQRPGQGLEWIGMIHPSDSETRLNQKFKDKATLTVDKSSSTAYMQLSSPTSEDSAVYYCARGYYFDYWGQGTTLTVSS
VL: DIQMTQSPSSLSASLGERVSLTCRASQDIGISLNWLQQEPDGTIKRLIYATSSLDSGVPKRFTGSRSGSDYSLTISSLESEDFVDYYCLQYVSSPWTFGGGTKLEIK
Question: B2 was tested. Which Kd [1] did it give?
Answer: 0.105 nM

Question: What about the koff [1] of the same binder?
Answer: 5.53e-05 s⁻¹

Question: And the kon [1]?
Answer: 525000 M⁻¹ s⁻¹

B3: mouse anti-Tie2 antibody 3E12 (antibody, V domains shown)
VH: QVQLQQPGADLVRPGASVKLSCKASGYSFTSYWMNWVKQRPGQGLEWIGMIHPSDSETRLNQKFKDKATLTVDKSSSTAYMQLSSPTSEDSAVYYCAKGYYFGYWGQGTTLTVSS
VL: DIQMTQSPSSLSASLGERVSLTCRASQDIGISLNWLQQEPDGTIKRLIYATSNLDSGVPKRFSGSRSGSDYSLTISSLESEDFVDYYCLQYASSPPTFGGGTKLEIK
Question: With B3 as the binder, how does the Kd [1] read?
Answer: 0.251 nM

Question: What about the koff [1] of the same binder?
Answer: 9.12e-05 s⁻¹

Question: And the kon [1]?
Answer: 363000 M⁻¹ s⁻¹

B4: mouse anti-Tie2 antibody 3B2 (antibody, V domains shown)
VH: QVQLQQPGAELVRPGASVKLSCKASGYSFTSYWMNWVKQRPGQGLEWIGMIHPSDSETRLNQKFKDKATLTVDKSSSTAYLQLSSPTSEDSAVYYCARGNYFDCWGQGTTLTVSS
VL: DIQMTQSPSSLSASLGERVSLTCRASQDIGISLNWLQQEPDGTIKRLIYATSILDSGVPKRFSGSRSGSDYSLTISSLESEDFVDYYCLQYASSPWTFGGGTKLEIK
Question: How did the Kd [1] turn out when B4 was run?
Answer: < 0.001 nM

Question: What about the koff [1] of the same binder?
Answer: < 1e-07 s⁻¹

Question: What about the kon [1] of the same binder?
Answer: 444000 M⁻¹ s⁻¹

B5: mouse anti-Tie2 antibody 3H7 (antibody, V domains shown)
VH: QVQLQQPGAELVRPGASVKLSCKASGYSFTSYWMNWVKQRPGQGLEWIGMIHPSDSETRLNQKFMDKATLTVDKSSSTAYMQLSSPTSEDSAVYYCARGLYGNSWGQGTLVTVSA
VL: DIQMTQSPSSLSASLGERVSLTCRASQDIGISLNWLQQEPDGTIKRLIYATSSLDSGVPKRFSGSRSGSDYSLTISSLESEDFVDYYCLQYASSPYTFGGGTKLEIK
Question: For B5, which Kd [2] is on record?
Answer: 0.0269 nM

Question: And the koff [2]?
Answer: 1.05e-05 s⁻¹

Question: And the kon [2]?
Answer: 558000 M⁻¹ s⁻¹

Question: What about the Kd [1] of the same binder?
Answer: 0.0556 nM

Question: And the koff [1]?
Answer: 2.13e-05 s⁻¹

Question: And the kon [1]?
Answer: 384000 M⁻¹ s⁻¹

Question: What about the Kd [3] of the same binder?
Answer: 25 nM

B6: humanized anti-Tie2 antibody 3H7H11G4 (antibody, V domains shown)
VH: QVQLVQSGAEVKKPGASVKVSCKASGYTFTSYWMNWVRQAPGQGLEWMGMIHPSDSETRLNQKFMDRVTMTRDTSTSTVYMELSSLRSEDTAVYYCARGLYGNSWGQGTLVTVSS
VL: DIQMTQSPSSLSASVGDRVTITCRASQDIGISLNWYQQKPGKAPKRLIYATSSLDSGVPSRFSGSGSGTEFTLTISSLQPEDFATYYCLQYASSPYTFGQGTKVEIK
Question: Which results are given for B6?
Answer: Kd [2]: 7.47 nM; koff [2]: 0.000467 s⁻¹; kon [2]: 62600 M⁻¹ s⁻¹

B7: humanized anti-Tie2 antibody 3H7H22G4 (antibody, V domains shown)
VH: QVQLVQSGAEVKKPGASVKVSCKASGYTFTSYWMNWVRQRPGQGLEWIGMIHPSDSETRLNQKFMDRVTMTRDTSTSTVYMELSSLRSEDTAVYYCARGLYGNSWGQGTLVTVSS
VL: DIQMTQSPSSLSASVGDRVTITCRASQDIGISLNWLQQEPGKAPKRLIYATSSLDSGVPKRFSGSGSGTEFTLTISSLQPEDFATYYCLQYASSPYTFGQGTKVEIK
Question: Which results are given for B7?
Answer: Kd [2]: 39.7 nM; koff [2]: 0.000656 s⁻¹; kon [2]: 16500 M⁻¹ s⁻¹

B8: humanized anti-Tie2 antibody 3H7H12G4 (antibody, V domains shown)
VH: QVQLVQSGAEVKKPGASVKVSCKASGYTFTSYWMNWVRQAPGQGLEWMGMIHPSDSETRLNQKFMDRVTMTRDTSTSTVYMELSSLRSEDTAVYYCARGLYGNSWGQGTLVTVSS
VL: DIQMTQSPSSLSASVGDRVTITCRASQDIGISLNWLQQEPGKAPKRLIYATSSLDSGVPKRFSGSGSGTEFTLTISSLQPEDFATYYCLQYASSPYTFGQGTKVEIK
Question: How did the Kd [2] turn out when B8 was run?
Answer: 96.5 nM

Question: And the koff [2]?
Answer: 0.000999 s⁻¹

Question: What about the kon [2] of the same binder?
Answer: 10400 M⁻¹ s⁻¹

B9: humanized anti-Tie2 antibody 3H7H21G4 (antibody, V domains shown)
VH: QVQLVQSGAEVKKPGASVKVSCKASGYTFTSYWMNWVRQRPGQGLEWIGMIHPSDSETRLNQKFMDRVTMTRDTSTSTVYMELSSLRSEDTAVYYCARGLYGNSWGQGTLVTVSS
VL: DIQMTQSPSSLSASVGDRVTITCRASQDIGISLNWYQQKPGKAPKRLIYATSSLDSGVPSRFSGSGSGTEFTLTISSLQPEDFATYYCLQYASSPYTFGQGTKVEIK
Question: With B9 as the binder, how does the Kd [2] read?
Answer: 6.59 nM

Question: And the koff [2]?
Answer: 0.000517 s⁻¹

Question: And the kon [2]?
Answer: 78500 M⁻¹ s⁻¹
